Measurements taken from US20180244754A1.

Biological target: human GH receptor (hGHR) (human) (UniProt P10912)
Assay: cell-based or functional assay

Chain of UniProt P10912 (P10912 19-638): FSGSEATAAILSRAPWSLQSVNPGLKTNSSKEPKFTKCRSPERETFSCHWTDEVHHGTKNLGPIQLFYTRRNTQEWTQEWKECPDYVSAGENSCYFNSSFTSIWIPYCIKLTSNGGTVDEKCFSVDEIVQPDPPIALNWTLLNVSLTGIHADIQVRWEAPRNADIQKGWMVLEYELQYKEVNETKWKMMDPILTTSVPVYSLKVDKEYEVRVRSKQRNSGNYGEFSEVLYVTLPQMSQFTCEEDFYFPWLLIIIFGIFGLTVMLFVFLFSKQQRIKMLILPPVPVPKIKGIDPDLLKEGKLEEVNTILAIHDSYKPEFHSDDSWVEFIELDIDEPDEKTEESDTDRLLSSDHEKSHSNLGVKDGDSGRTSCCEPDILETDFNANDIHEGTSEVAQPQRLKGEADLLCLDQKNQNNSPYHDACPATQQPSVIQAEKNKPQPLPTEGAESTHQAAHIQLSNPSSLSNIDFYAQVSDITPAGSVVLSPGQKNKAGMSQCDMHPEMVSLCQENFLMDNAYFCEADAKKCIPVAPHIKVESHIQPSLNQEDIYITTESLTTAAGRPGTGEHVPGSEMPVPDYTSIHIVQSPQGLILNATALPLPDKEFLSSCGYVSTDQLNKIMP

Substance | EC50 (nM), cell growth activity using BaF3/hGHR cells (absorbance at 490 nM) [nM] | EC50 of 22KhGH-HSA relative to EC50 of HSA-22KhGH, cell growth activity using BaF3/hGHR cells [times] | EC50 of 22KhGH-mHSA relative to EC50 of mHSA-22KhGH, cell growth activity using BaF3/hGHR cells [times]
22KhGH-HSA (ligand) | 0.878 | 6.4 | 
22KhGH-mHSA (ligand) | 1.2 |  | 7.8
HSA-22KhGH (ligand) | 0.138 |  | 
mHSA-22KhGH (ligand) | 0.153 |  | 
